Data reported in patent US20160264662A1 (US Dept. of Health and Human Services, published 2016).
Numbering of substitutions follows the chain as printed.

T1: recombinant human TEM8 ectodomain (human, UniProt Q9H6X2 33-321)
T1 construct: also called TEM8-ED; Tumor Endothelial Marker 8
T1 sequence: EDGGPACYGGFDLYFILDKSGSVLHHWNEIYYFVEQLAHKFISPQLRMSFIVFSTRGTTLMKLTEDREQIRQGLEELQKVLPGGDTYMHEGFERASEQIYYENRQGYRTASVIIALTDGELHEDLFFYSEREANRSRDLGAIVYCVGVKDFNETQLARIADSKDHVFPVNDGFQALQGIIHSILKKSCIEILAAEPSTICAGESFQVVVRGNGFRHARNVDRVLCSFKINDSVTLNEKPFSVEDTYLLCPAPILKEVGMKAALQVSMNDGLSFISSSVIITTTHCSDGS

B1: m830 antibody in human IgG1 format (antibody, V domains shown)
VH: EVQLVESGGGVVQPGRSVRLSCAASGFTFSTYTMHWVRQAPGKGLEWVAIISNDGSNKYYADPVRGRFTISRDNSKNTLYLQMNSLRAEDTAVYYCVRGSSWYRGNWFDPWGQGTLVTVSS
VL: DIQMTQSPSSLSASVGDRVTIACRASQTISRYLNWYQQKPGKAPKLLIYAASSLQSGVSSRFSGSGSGTEFTLTISSLQPEDFATYFCQQTYSPPITFGQGTRLEIKR
notes: also called m830 mAb; human m830-IgG1
B2: m863 antibody in human IgG1 format (antibody, V domains shown)
VH: EVQLVETGAEVKKPGASVKVSCKASGYTFTGYYMHWVRQAPGQGLEWMGWINPTSGSTNYAQKFQGRVTMTRDTSISTAYMELSGLRSDDTAVYYCVRDPGSPKWLAFDPWGQGTLVTVSS
VL: B1 VL with M4L, A22T, Q27R, T28A
notes: also called m863 mAb
B3: m825-MMAE conjugate (m825 antibody in human IgG1 format conjugated to MMAE) (other)
VH: QVQLVQSGAEVKKPGTSVKVSCKVPGYTFSSYAISWVRQAPGQGLEWMGGIIPIFGTTNYAQKFQGRVTITGEESTSTVYMELSSLRSEDTAVYYCARDTDYMFDYWGQGTLVTVSS
VL: SSELTQDPVVSVALGETVSITCQGDNLRDFYASWYQQKPGQAPLLVMYGKNRRPSGIPDRFSGSTSGNTLSLTITGAQAEDEADYYCSSRDNSKHVVFGGGTKVTVL
modifications: MMAE with stretcher unit, Val-Cit peptide cleavage site and spacer, attached to thiol groups formed by partial reduction of inter-chain disulfide bonds (positions not stated)
notes: also called anti-TEM8-MMAE
B4: m825 antibody in human IgG1 format (antibody, V domains shown)
VH: B3 VH
VL: B3 VL
notes: also called m825 mAb; human m825-IgG1
B5: m822 antibody in human IgG1 format (antibody, V domains shown)
VH: B3 VH with T16A, P25S, T58A, G72A, E73D, V79A
VL: B3 VL
notes: also called m822 mAb

Legend:
[1] = target: T1, recombinant human TEM8 ectodomain; assay: SPR (Biacore), antibody in IgG1 format, recombinant human TEM8 ectodomain; apparent KD
293 mCMG2 = target: T2, 293 mCMG2 (mouse, UniProt Q6DFX2); assay: flow cytometry (FACS), 293 cells expressing mCMG2 against parental 293
T2 construct: expressed on human embryonic kidney 293 cells; also called mouse CMG2; mouse ANTXR2 expressed on 293 cells

[2] = target: T3, human CMG2 (hCMG2) expressed on CHO or 293 cells (human, UniProt P58335 34-489); assay: flow cytometry (FACS), CHO cells expressing hCMG2 against parental CHO
T3 construct: whole, on cells; also called ANTXR2

[3] = target: recombinant TEM8 (AP-TEM8); assay: ELISA-type titration of m825-MMAE on recombinant AP-TEM8; absorbance at 450 nm against Log (ng/well)

T3 sequence (P58335 34-489): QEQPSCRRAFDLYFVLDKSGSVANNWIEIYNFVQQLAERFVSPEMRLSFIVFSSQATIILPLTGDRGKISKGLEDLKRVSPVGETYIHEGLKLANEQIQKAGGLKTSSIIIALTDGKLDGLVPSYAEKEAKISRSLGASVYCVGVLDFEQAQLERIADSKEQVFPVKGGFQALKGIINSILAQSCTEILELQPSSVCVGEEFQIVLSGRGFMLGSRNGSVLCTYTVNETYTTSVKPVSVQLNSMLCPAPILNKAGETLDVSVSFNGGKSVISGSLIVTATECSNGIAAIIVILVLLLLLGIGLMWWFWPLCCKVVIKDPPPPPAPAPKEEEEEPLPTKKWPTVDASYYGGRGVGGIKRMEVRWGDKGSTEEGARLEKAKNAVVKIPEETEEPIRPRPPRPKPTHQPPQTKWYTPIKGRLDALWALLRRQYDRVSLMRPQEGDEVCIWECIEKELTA
T2 sequence (Q6DFX2 32-487 limits assumed): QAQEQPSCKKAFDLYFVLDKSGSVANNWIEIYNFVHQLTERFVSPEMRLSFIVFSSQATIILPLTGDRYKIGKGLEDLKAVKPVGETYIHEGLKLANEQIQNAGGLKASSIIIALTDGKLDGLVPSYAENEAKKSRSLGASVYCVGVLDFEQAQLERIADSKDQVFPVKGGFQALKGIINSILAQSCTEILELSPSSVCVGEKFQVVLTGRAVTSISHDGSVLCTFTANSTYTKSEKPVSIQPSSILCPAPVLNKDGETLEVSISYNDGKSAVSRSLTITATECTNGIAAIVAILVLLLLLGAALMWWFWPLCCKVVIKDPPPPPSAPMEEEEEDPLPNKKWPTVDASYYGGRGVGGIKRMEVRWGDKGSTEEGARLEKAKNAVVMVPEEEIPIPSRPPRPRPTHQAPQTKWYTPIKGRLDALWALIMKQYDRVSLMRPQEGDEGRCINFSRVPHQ

| Binder | Kd [1] | binding result (293 mCMG2) | binding result [2] | EC50 (read off the curve) [3] |
| --- | --- | --- | --- | --- |
| B1 | 12 nM | no binding | no binding |  |
| B2 | 1.2 nM | no binding | no binding |  |
| B3 |  |  |  | ~0.5 ng/well |
| B4 | 0.034 nM |  |  |  |
| B5 | 35 nM |  |  |  |
